Test results reported in the RNAGym collection of RNA variant scans (doi:10.7554/elife.90254).

B1: OR4K15 (parent)
chain: GUUAACGGUCAUAGGCCAUGGAAACUAGGAGCACCAUUUCGCUGCCAGUGAAGAAAUGAACAAAGAAAAUCUGGGCCAGGCAGGCAUCAAAAGAAAUAGUCUUGCGCUCAACCAGAAAGUCUGUAAUCAUUUUAAGGGUA

Variants of: B1
Assay: self-cleavage, relative activity (ratio to wild type); higher = more cleavage; in vitro, sequencing; the parent is a self-cleaving ribozyme

Variant | self-cleavage
U9G G83A | 1.07
A11G G31C | 1.04
U9A U108A | 0
U9A A23U | 1.59
A11G C121A | 1.62
U9A A118G | 0.9
A11U A54U | 2.18
C10U A110G | 0.19
A11U A118G | 0.59
A11U A118U | 0.51
U9G A117C | 0.41
U9G A117G | 2.41
U9A A69G | 1.27
U9A C77A | 0.08
A11G A52C | 0.82
A11U A30G | 1.23
A11G A86U | 1.82
A11G A86G | 0.76
A11U A55G | 0.82
A11U G58A | 0.75
U9C A111U | 0.09
U9C A111G | 0.02
U9G U72A | 0.19
U9C G75A | 0.08

Variant | self-cleavage
C10U A56G | 0.84
U9A A140U | 1.31
A11G C88U | 1.54
A11U A78C | 0.22
U9A A11G | 0.92
U9G U100C | 1.91
A11U U49C | 1.38
A11U A92G | 1
A11U U39C | 1.11
A11U U39A | 1.34
A11G A110G | 0.12
U9C A22G | 1.21
A11G A33U | 0.86
C10A A86G | 0.31
U9C U37A | 2.35
U9A A98G | 0.34
A11G G93A | 2.04
C10A U124C | 0.79
A11G A90U | 1.69
A11G A90G | 1.04
A11G C61G | 1
U9C A92C | 2.26
U9C A92G | 0.82
U9C A140G | 1.33

Variant | self-cleavage
U9C A135G | 1.5
U9C A135U | 0.57
C10A U38A | 0.81
A11G U39C | 0.96
U9A A59U | 1.81
U9A A59G | 1.12
U9A G41A | 1.34
A11U U87A | 1.75
U9C C45U | 1.07
A11U A51U | 0.87
A11U A51C | 1.16
U9C G58A | 1.29
U9A A27G | 0.47
A11C U49C | 1.57
A11G A59U | 0.98
A11G A59G | 0.88
U9C A11U | 1.67
U9C U131C | 1.7
U9C A98U | 1.32
A11C U37C | 0.79
C10U U87C | 1.08
U9A A22G | 1.7
C10U U132C | 1.26
U9C G136A | 2.13

Variant | self-cleavage
A11G A96C | 0.82
A11C A125G | 0.5
U9A U97A | 1.03
A11C A118U | 0.72
A11C A118G | 2.4
U9G U26C | 0.34
A11G U122C | 1
A11G G41A | 0.82
A11G G41U | 1.91
A11U U57C | 0.73
C10A A96G | 1.33
U9A U131C | 0.4
U9C G84A | 1.54
U9C C112A | 0.03
U9C A55U | 1.16
A11C U122C | 1.46
U9A A33G | 0.9
U9A A111U | 0.19
A11U A82G | 0.63
U9A A91G | 0.37
U9C A60U | 1.9
U9C A60G | 1.41
C10U U131C | 0.47
C10U A95C | 0.6

Variant | self-cleavage
A11U A91G | 0.78
U9A A114U | 0.07
U9A A114G | 0.33
U9C A96G | 1.35
A11G A60U | 1.02
A11G U87A | 1.05
C10A A68G | 0.85
C10A A90G | 1.02
C10U U124A | 0.36
U9A A89U | 0.66
A11G G84U | 0.53
A11G A78U | 0.26
A11G A78G | 0.54
A11G U124C | 0.34
A11G U124A | 0.66
U9C A86G | 1.18
U9G | 0.92
U9A | 1.01
U9C | 1.61
A11G C107G | 0.05
U9G A95G | 0.99
A11U A23G | 0.87
U9C U127C | 1.44
U9C U127A | 2.67

Variant | self-cleavage
A11U A52G | 1.25
A11U A52U | 1.54
U9C U38G | 2.11
A11G U127A | 1.17
A11G A134G | 0.88
A11G A134C | 0.5
A11G A66U | 1.45
A11G A66G | 0.88
U9C A18U | 1.36
U9C A18C | 0.9
A11G A94U | 1.2
A11G A94G | 0.95
A11G C17A | 0.61
U9G A24G | 1.4
U9C U139C | 2.45
C10U A47G | 0
A11G A51G | 1.15
A11G A22G | 1.04
U9A C42A | 0.53
A11U A116G | 1
A11U A116C | 0.23
U9C A82U | 0.35
U9C A82G | 0.58
U9G A54G | 1.44

Variant | self-cleavage
C10U A55G | 0.52
A11U A18G | 1.38
U9C C77U | 1.18
C10A A118G | 1.99
U9C A90U | 2.21
U9C A24G | 1.33
A11U C61A | 1.92
A11G C112A | 0.02
A11G C112U | 0.05
U9C A23U | 1.07
U9C A23C | 1.27
U9G U57A | 0.51
U9A U87C | 0.85
U9G A89G | 1.46
U9C C88U | 1.34
C10U U108C | 0.06
A11G U102C | 1.41
A11C U72C | 0.13
A11C U72A | 0.17
U9A A24G | 1.29
U9A A24C | 0.99
A11U G29A | 0.94
U9C G99U | 0.63
A11G | 0.77

Variant | self-cleavage
A11C | 1.41
A11U | 0.87
U9C A89U | 1.25
U9C A89G | 1.45
U9A A90G | 1.23
U9C A51G | 1.27
A11C A22G | 0.94
U9C A30G | 1.13
A11U A60G | 1.16
A11G A47G | 1.27
C10U U127C | 0.32
U9C A110G | 0.15
U9C A62U | 2.18
A11G A140U | 1.31
A11G A140G | 0.96
U9A A36U | 1.2
A11C A78C | 0.16
A11G A30G | 1.08
U9G G119A | 1.48
A11U A111G | 0.06
A11U A111U | 0.06
A11U A89G | 1.21
A11U A89U | 1.59
A11C U124C | 1.12

Variant | self-cleavage
A11U A66G | 2.37
A11U A90G | 0.51
C10A A47U | 1
A11G A54G | 1.01
U9C U43C | 1.48
A11U A63G | 0.86
A11G U139C | 2.37
U9C U122C | 1.15
A11G A82U | 0.2
C10U A63U | 0.69
U9A U122C | 0.88
U9A U122A | 1.22
U9C U132G | 1.94
U9C U132C | 1.45
A11U C88A | 1.99
U9C U103C | 1.13
U9C U103A | 1.9
U9A A125G | 0.76
U9C A13U | 1.22
U9C G29U | 2.61
A11G G106A | 0.06
A11C A69G | 1.7
A11G U97C | 1.42
U9C G80A | 0.34

Variant | self-cleavage
A11G A118U | 0.2
U9A A18G | 1.79
U9G A62U | 0.44
U9A A67U | 0.67
C10U A64G | 1.25
U9C A68G | 1.51
U9A A30G | 0.98
C10A G20A | 0.86
U9C A54G | 1.53
U9A A134G | 1.66
U9A U37C | 1.63
U9C A52G | 1.63
U9C A52U | 1.23
A11G U72A | 0.38
U9A A52C | 2.25
U9C U57A | 1.6
A11U A86G | 1.35
C10U A91G | 0.68
U9A G58U | 0.65
U9C U108G | 0.06
U9C U108C | 0.02
A11G U26C | 1.27
A11G U49C | 0.39
U9G U102C | 2.28

Variant | self-cleavage
A11G U120C | 0.35
A11G U131C | 0.79
A11G A27C | 0.61
A11G C71A | 0.71
U9A A110G | 0.22
A11G A36G | 0.8
U9A U103C | 0.49
U9C A78U | 0.56
U9C A78C | 0.38
U9G A91U | 1.26
A11U A110U | 1.19
U9A A92G | 1.08
A11G A126U | 1.17
U9A A96G | 1.16
U9A U139A | 1.31
A11U G75C | 0.16
U9A G15C | 0.57
A11G U70C | 0.76
A11G U70A | 0.92
U9C G83A | 2.33
U9C C46A | 1.74
U9C C46U | 1.03
U9A C88U | 0.82
A11G U103C | 0.95

Variant | self-cleavage
U9C U72A | 0.43
U9C A59G | 1.32
U9A U49A | 1
U9C A63U | 1.83
A11G A135G | 1.41
A11G A135U | 0.99
C10U A117G | 2.34
C10U U39C | 1.02
A11U A96G | 1.31
U9A U43A | 0.83
U9C A66G | 0.9
U9C U19G | 2.03
A11G U12A | 1.21
U9C C34U | 1.01
A11U A56G | 1.1
U9C A116U | 0.55
U9C A116G | 0.49
A11G C101U | 0.38
U9C A91U | 1.49
U9A A64G | 1.1
A11U U19A | 1.38
A11U U19C | 1.85
U9C A129U | 0.98
U9C A129C | 0.68

Variant | self-cleavage
U9C A129G | 1.37
A11U A140U | 1.3
U9G A96G | 1.46
A11U A117G | 1.41
A11G A125G | 0.38
A11G U108A | 0.03
A11G A92C | 0.7
U9C A47G | 1.08
U9C A47C | 1.02
U9C A47U | 1.1
A11G G137A | 0.53
U9C C40A | 1.25
U9G A135U | 0.85
A11G A129C | 0.66
U9C A114G | 0.64
C10U G106C | 0.03
A11G A68G | 1.13
A11G A68C | 0.39
A11G A68U | 1.23
A11G C113G | 0.04
C10U A111G | 0.07
U9A A55G | 0.81
A11C A13G | 0.93
A11G U38C | 0.65

Variant | self-cleavage
A11G U38A | 0.86
A11G A111G | 0.04
U9C U120G | 1.39
A11G U130C | 0.53
U9C C76U | 0.15
U9C C76A | 0.07
A11G A91U | 1.22
A11G A91G | 0.73
U9A U130C | 1.33
A11U A114G | 0.61
A11U A114U | 0.05
A11U U72A | 0.53
A11U U72C | 0.35
C10U U103C | 1.16
A11G A114G | 0.46
U9C U130C | 1.05
U9C A36G | 0.96
U9A G80U | 0.2
A11G A116C | 0.1
U9C G15A | 1.47
U9G A78G | 0.26
U9C U100C | 2.18
